In a protein production outcome set (Wang et al. 2014) one finds protein production data, which are given here for 22 sequences.

A short description of the data set: label from the status in PepcDB records.
Take “MKIKHWDRWLASLKDDDYLKNIEAIKLYLAVMSIYEPDLLDEYMIDDDFHPMISRLKNVTLDVTSARFKELYITESKMNYARDELDGAMIISKTLTKSDIVGNVALPKAQVMSVLTRMNGVTDEGLDNGFEVQVHDIMEDDLYTVTLKRIDDMKYYFGTGWSTMKHSLDLVEGDVQKLYWDQFENKFIVLNFQHKTMGIMIPV”: the protein production entry was “failed”.

As for “MGSSHHHHHHSSGENLYFQGHMDVLASGEKSRMLFERTKELFPGGVNSPVRAAVKPYPFYVKRGEGAYLYTVDGARIVDLVLAYGPLILGHKHPRVLEAVEEALARGWLYGAPGEAEVLLAEKILGYVKRGGMIRFVNSGTEATMTAIRLARGYTGRDLILKFDGCYHGSHDAVLVAAGSAAAHYGVPTSAGVPEAVARLTLVTPYNDVEALERVFAEYGDRIAGVIVEPVIANAGVIPPRREFLAALQRLSRESGALLILDEVVTGFRLGLEGAQGYFNIEGDIIVLGKIIGGGFPVGAVAGSREVMSLLTPQGKVFNAGTFNAHPITMAAGLATLKALEEEPVYSVSREAAKALEEAASEVLDRTGLPYTINRVESMMQLFIGVEEVSNAAQARKADKKFYVKLHEEMLRRGVFIAPSNLEAVFTGLPHQGEALEIAVEGLRSSLKTVLGS”, the protein production entry is “not failed”. With “MVKFIHCSDLHLDSPFKSKSHISPKIFEDVQKSAYESFKNIVDIALQQDVDFVIIAGDLFDSENRTLRAEIFLKQQFERLQNEQIFVYVCHGNHDPLSSKISSNWPDNVSVFSNKVETYEAITKSGETIYIHGFSYENRASYENKIDEYPSSQGQKGIHIGVLHGTYSKSSVNERYTEFILEDLNSKLYHYWALGHIHERQQLSDMPVINYSGNIQGRHFNEQGEKGCLLIEGDHLKLKTKFYPTQYIRFEEATIETDKTSKQGLYEVIQNFKEQVREEGKAFYRLTLVINSETLISPQDLLQVEEMITDYEENENQFVYIDELKIQYAQNDESPLVNEFSAELLVDQTVFDKAMSDLYLNPRASKFLDDYGTFDHTALVNRAEEILKAEMRGEQNDN” the entry was “failed”; with “MAVLPPDPVFSLRSPDMGAVNSLCFQESDRLLAGTIKGSVFLWDLQTNRSALHFEVGSDPITSLHHTPDRLVTQEKGGTITMFSIGGSSYVKERSIPGNHLGFCRSALHTNTSKTNEQLLFYPCEESSIGVLHVTDAAAPTQILVPDDPQLPKLGSVTCFKPFECASQLFLLAGYESGHFLTWDISSSVILDVMELAQDATSVDYDPVTNRGIVGGPTDKLISFSYQRSSMQMQLGSELCIKNPGVNGVRIRPDQKVFASAGWDGRIRIFSWKSLRPLAVLTQHKNGGVMDLAFSSQQVAMWHAPIMAAAGMDGQISLWDLYN”, “failed”.

Consider “MWKTASDKGLGHLLRDVWSLLNEEERELLDKEIQPFPCKKASTVFSEGDIPNNLFYLYEGKIKILREGVYGRFHISRIVKPGQFFGMRPYFAEETCSSTAIAVENSKVLAIPVEAIEALLKGNTSFCRYFLKALAKELGYAERRTVTLTQKHVRGRLAETLLILKENFGFENDGATLSIYLSREELATLSNMTVSNAIRTLSTFVSERMLALDGKRIKIIDCDRLQKTARSG”, for which the protein production entry is recorded as “not failed”. Under “MQAAAARIVTIAVCPGPAAAMQDAILQALRRDAADDAVALAREWVTNAPDHAAAHRWLALALQQQGQPALALDSIDTALTLTPEDADLHLLRAGALLATRDLSAADAALSRTTALDPNQFNAYVMQAHLAVARGDLDEAERLSRTAARLAPEHPQLLAVDGVVEMRRGQDDRALSLLTRAAEQLPDDARVLFSLGFAYLQKEHFAFAERAFERVIELNPPGTALRAFIAQLAQRQGRLDDALAAMQGVLDQPDGDLPAMRRLAGEMELQAGRPDQAAAHLRLALAHWPADRRTLHALLTAWERLGAVDDARDTLDAALATSATAHDLWLARLAVEPVGGPQAQAVIERWLLAMPEHLPALEALMRVHDMQGQADEAEMVARQIVAVEPGRISGEQRIVEALLQRDPPAAIACVESLIESLPAPQQTVLRPWLGNVQDRAGQPDAAVGTWMQFHREQAQHRLPLPPQAARQPTQWPALGSIPDTVTARPLFVWGTPGSHVERLVAVMGAATPLVRGDRYGITPPSDALQSYRTLEQLASGELAPTALVEGWKAQLPRRGIDDGNVIDWLLWWDNTLLTALRPHLPEGRLAIALRDPRDMLLDWLSAGASAPLALQSPQQATDWLLIALEQLATLHERDLYPHRIIRLDGIEDDPQGISTALEQAFGLSFPLVEPRGPARLASGRWRDYRGVLGAQFDLLTLIAVRFGYPQD” stands “failed”; under “MPPHASQVSVVVIGYDDAAHVTDAVRSALAQGPAVREVIAVDDCSSDGSPGLLDALAVEDTRVRVLRREVNSGGCGTPRNDGIDAATAPYTMFLDSDDMLPPGAVEALLAAADRHGAQVAAGLCVRRELPSGREVPWQPELYTEPALVPHPARLRRLVHDTLCVNKLYRTDFLREHAIRFPDGRFPYEDFVFSARVLAAGPRMALVPDTVYVWHVRRSAERLSISLDRAGIDNWQARMAAAAQAYDILLGAGEKRLARAARAKFLDHELRMYTRELDLRGTEYRREWWTLTRAYLSAFDAAEFALAPAPGRVIARVVLAAEEPRDLPRLKELAARPARLHPPYARAADGTPVWSADLPQVPLDHVLVRPMHLLPVAVDAELRPRARGTRLRLRLHELYGRVADAGPASVNLEFVHREGGRVGTAATAPLLADPEFDTWSAEVPVDLAALGSGTWDLRLTLRFHDGTSRDTTAHAVAGPGLLRRGVVPSGRHGVLLVQPYATHSGALALRVATGIQGVTSVMGRRLRRLLHW”, “failed”; under “MVGISFVFDKISNGISSYKSIKGIEQAHKSKKIASDLREYGYKLLDCRKLEAAKDAFEEALRFDPTNPEIQMGLFKSAVFQPILTKNPTYYDAEIALKKIETILKKNPNDRHAYYFMGEIYRDSDPKKASNYYKKVISLDPKSYLTGLAYNSLAYIAATEKDNDLAFYYMKKAANLCEMNPTVLNNLSYQHLIRGQYEITIEKLTRLIKHDPYKIIVFWNIINSLRMIGKFQEAYIYNHMLIECIEDETTSYHAANLGAFFFQTDPSGDGVFFKEISGKKFYSYCSMALTCYVLDLTEEANMYLEKAQKLDCFSKASAIKFLYYNIECIQKNNVKLIYKLDDIKERLIKLDLFTNVSITVARNETQYINMAKV”, “failed”. Take “MNIILLSGKKSEAQPGDGEYPEYLCEYNGKPLIHTLIDNCAALEPRRIICTFSNDDVIGLHLRNMVQQMHPSASVLPVHNITQGAACTALLASGQIDNDDELLILSVSDFLDIELREVLRVFREANEDAGVVIFNSLHPRYSFARLDSDQRVIEAAEKNPISPHAIAGMYWFKSGSLFVSAAKEMIRKDARVNDHFYIAPALNELVLLHKKIGAYRIEPRQYRPLKTQNQLHAFEMADIR”: the protein production result is listed as “failed”. Consider “MFNESDAPQPPKVLSTPLEIAANLRQLQESHDPLIITFHDRSHRFQSYVVHVDRESNTLALDEMIPRDGEKFIENGEHFRVEGFHDGVRIAWECDHALKISEVDGHRCYSGPLPQEVTYHQRRNAFRAALKLSQLVDIILDGAHLKGNGAMRGKLLDISATGCKLRFEGNVEDRLQLGQVYERFKAGNPLGLVDTMVELRHLHYEERINTTFAGVRFHNLSGQAQRKIESFVYQLQREARRFDKDDY”, for which the protein production entry was “not failed”. Under “MKKLNSKGIRLSELMEKWRRRKKGHFAVYTNEGKRFVLPLDYLNHPMLQVLLQMAEDEFGTTIDGPLKVPCDGSLMDHIIMLVRRSMSHDYDDVEKSSTSSTCKGASISSLFRGQSQLQSLVS” stands “failed”; under “MEAVIFDMDGVLMDTEPLYFEAYRRVAESYGKPYTEDLHRRIMGVPEREGLPILMEALEIKDSLENFKKRVHEEKKRVFSELLKENPGVREALEFVKSKRIKLALATSTPQREALERLRRLDLEKYFDVMVFGDQVKNGKPDPEIYLLVLERLNVVPEKVVVFEDSKSGVEAAKSAGIERIYGVVHSLNDGKALLEAGAVALVKPEEILNVLKEVL”, “not failed”; under “MLCTYHAGQWFNNLLNFIDFIRLQFGKTANVLNLNDCLHIWLFSLEVRSLRDVVKMKLILSIMILSGCLLFILAGCARKNDYMPPAGATGEKIFKGACVQCHTPVNGKVMILRSEMANKEAIIERVTNGKGFGMPAFPNLTGDSVQNLAEYVLENSVTR”, “failed”. Under “RIKPGPNGRALLFIHGTFSTTDGSFGDLASAEFFGELARTYGNAIYGFDHYSVSVTPEKNASDILKTLPSGGIDCDVVTHSRGGLVLRTLNERQGDLSQGKRFRLQRAALVACPNEGTQLATPDRWQGTLGWLANLLDLFPPNPITSNAALVMHWVTWFAKVGVAAAEG” stands “failed”; under “MEQNSYVIIDETGIHARPATMLVQTASKFDSDIQLEYNGKKVNLKSIMGVMSLGVGKDAEITIYADGSDESDAIQAISDVLSKEGLTK”, “not failed”. Under “MRDILKKELILLGILISISFAGCVDQNPEEYYSKGILQYDDGNYTESIDLFEKAIQLNPEESKYWLMKGKALYNLERYEEAVDCYNYVINVIEDEYNKDVWAAKADALRHIEGKEVEAEIAEARAK” stands “failed”; under “MSLDVLTNFAQIQSFTALAIGIMIGLAALGAGLGLAIMAGKFLESAARQPELIPLLQVRMFIAAGLIDAAFIISVAVGLLLAFANPLSSTLLVAVSKALAG”, “failed”. On to “MDKRIVGTNAGKVWCALKEIGEISIPELARRLNLSVESTALAAGWLARENKICIQRKNGLIALSDESAFPFSFG”, for which the protein production result is listed as “failed”.

For “MNIPVEVEVAEVLTDSAATGIFEPGDKLLSIDGTAISTPGDAQTIVRSKAPGDEITISYERNDAESQATITLREHPLEHHHHHH”, the protein production result was “failed”. With “MSQSNHPGGKDAGSIPRVLISADRSSSGKTTISMGLMAALVSRGYKVQPFKVALDYIDPSYHTEITGRFCRNLDGYLMDEHGILDVYTHACETGGGADIAIIEGVRGLFEGFESLSDVGSTAQIAKILKCPVVFVINARSITRSAAALIGGYKNFDPDVEIAGVILNNIGGRRHAQKAKEAIEHYTGVPVLGIIPRDPSMQISMRHLGLMPALEGRRRFGDGGFENRLHGIEEIINKGIDVDRFLGIAESAKPLTALENSIFSPAVNENSQKPKIGVALDEAFNFYYRDNIDLLEIAGAEIVYFSPVNDPGLPEVDGLYIGGGYPELFAAELEANETMRKSIKEASAAGMPIYAECGGLMYLTEKISTGVPGKGTYHDASMPESTYSMVGALPGHTIMGQTRVVSYNIGTLARDCPIGKKGNSFKGHEFHHSEILEIPDDAEFAIALTRGTGIRGDRDGLIVNNTIGSYAHLHGVAYRELAGSLVEAARKFRDSRVSSLEHHHHHH” the entry was “not failed”; with “MTYKVFIDGEAGTTGLQIRARLEGRDDIRLITLGDADRKDTRARLAAFDAADVGILCLPDAAAVEIVAQLAGTGTRLIDASTAHRVDPGWVFGFAELDNDLRARIAGGQFVSNPGCYSTGAIALLHPLVKRGLIAADQALAINAISGYSGGGKAMIAEFESGKTDGPFVYATEQRHKHLPEIVAHAGLTRQPVFVPSVGPYEQGMIVQVPLPFVEPGQGAAIEAALADHYATSRFVSVVSPDHYGARIDPRRLNGTNQLELSVHGNLDTGGAVLLALLDNLGKGASGAAVQNLNIMLGLDEGLGL”, “failed”; with “MKNVEVLTGDPKKAILKLSAPMVVSNLIFTLYNLVDGIWVAGLGPDALSAVGLFFPIFFVFIAISFGLSVGANSAVSRRIGAKRYDAACVAATLAVAMGILVSIPMTLSVVFLNGVMVFLGADGEILRLAVDYGSIMVLGSVFLVFSNVSAGILNGEGNARMAMYANAAGSLLNMVLDPIFIYLLGYGIAGAAIASVISMALSSIVFSFWFLSGRSYVRFRVAGWNLPTVFDLLRVGMPASLSMLTMSVAFMLINRVVIETGGSEGLAAYTSAWRLIQFGFVPLFGVSAALTAVSGAAYGARNPRKIGESLNYTVKLLLAVDAAILALMVAFAPQIALIFTYTEVSAVMYEEIVRTIRIAAFVLLFAPLGVSSSAVFQGMGKGERSFAITVLRAIVFQVSLCYVLAVPFGFDGVLLGFVLGEALGCFTGFSWVRLTVRRLERCLLST”, “failed”.
